The supplement of paper PMC7877785
± gives the uncertainty stated by the source.

Test: self-splicing fitness, log relative to wild type (ln ratio); higher = more splicing; Tetrahymena group I intron in knt gene, E. coli kanamycin selection, DiMSum; sequences stand for … in CUCUCU…GGAGGGAAAAGUUAUCAGGCAUGCACCUGGUAGCUAGUCUUUAAACCAAUAGAUUGCAUCGGUUUAAAAGGCAAGACCGUCAAAUUGCGGGAAAGGGGUCAACAGCCGUUCAGUACCAAGUCUCAGGGGAAACUUUGAGAUGGCCUUGCAAAGGGUAUGGUAAUAAGCUGACGGACAUGGUCCUAACCACGCAGCCAAGUCCUAAGUCAACAGAUCUUCUGUUGAUAUGGAUGCAGUUCACAGACUAAAUGUCGGUCGGGGAAGAUGUAUUCUUCUCAUAAGAUAUAGUCGGACCUCUCCUUAAUGGGAGCUAGCGGAUGAAGUGAUGCAACACUGGAGCCGCUGGGAACUAAUUUGUAUGCGAAAGUAUAUUGAUUAGUUUUGGAGUACUCGUGGUCG
How it was run: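 Pooled colonies went to amplicon sequencing on an Illumina HiSeq 2500 after six replicate transformations. The plates were LB agar with 100 μg/mL carbenicillin, 50 μM IPTG and 0.2% rhamnose, with or without 25 μg/mL kanamycin, incubated overnight at 37°C or 30°C. The E. coli BL21(DE3) library had all eight P1ex-region intron nucleotides randomised, the intron placed in the knt kanamycin-resistance gene on pET-22b(+). DiMSum fitness is the error-weighted combination of replicate fold changes, kanamycin against none, normalised to wild type.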

With CCUCAGCAAUAUUACGGAAU the “self-splicing fitness (ln)” value (30 °C) was -3.72 ± 0.3 and the “self-splicing fitness (ln)” value (37 °C) was -2.69 ± 0.25.

For CGGUAGCAAUAUUACGUCUU, the “self-splicing fitness (ln)” value (30 °C) was -0.667 ± 0.1 and the “self-splicing fitness (ln)” value (37 °C) was 0.17 ± 0.12.

In the case of CAUUAGCAAUAUUACGACGA, the “self-splicing fitness (ln)” value (30 °C) is reported as -2.25 ± 0.28 and the “self-splicing fitness (ln)” value (37 °C) is reported as -1.6 ± 0.2.

With CUGCAGCAAUAUUACGUGCA the “self-splicing fitness (ln)” value (30 °C) was -2.38 ± 0.13 and the “self-splicing fitness (ln)” value (37 °C) was -0.522 ± 0.1.

For CCCUAGCAAUAUUACGGGGU, the “self-splicing fitness (ln)” value (30 °C) was -2.49 ± 0.092 and the “self-splicing fitness (ln)” value (37 °C) was -2.91 ± 0.12.

In the case of AAGUAGCAAUAUUACGUCUU, the “self-splicing fitness (ln)” value (30 °C) is reported as -0.577 ± 0.12 and the “self-splicing fitness (ln)” value (37 °C) is reported as -0.48 ± 0.11.

With GAAUAGCAAUAUUACGCAGC the “self-splicing fitness (ln)” value (30 °C) was -2.72 ± 0.2 and the “self-splicing fitness (ln)” value (37 °C) was -1.93 ± 0.2.

For GCAUAGCAAUAUUACGAAUG, the “self-splicing fitness (ln)” value (30 °C) was -2.33 ± 0.096 and the “self-splicing fitness (ln)” value (37 °C) was -1.85 ± 0.12.

For GAUAAGCAAUAUUACGCCAC, the “self-splicing fitness (ln)” value (30 °C) was -3.11 ± 0.44 and the “self-splicing fitness (ln)” value (37 °C) was -2.13 ± 0.36.

In the case of ACAUAGCAAUAUUACGCGUC, the “self-splicing fitness (ln)” value (30 °C) is reported as -3.71 ± 0.18 and the “self-splicing fitness (ln)” value (37 °C) is reported as -3.26 ± 0.28.

For GUUCAGCAAUAUUACGUAUA, the “self-splicing fitness (ln)” value (30 °C) was -0.905 ± 0.15 and the “self-splicing fitness (ln)” value (37 °C) was -1.1 ± 0.17.

In the case of UAACAGCAAUAUUACGAGCU, the “self-splicing fitness (ln)” value (30 °C) is reported as -3.71 ± 0.12 and the “self-splicing fitness (ln)” value (37 °C) is reported as -2.37 ± 0.11.

For CACAAGCAAUAUUACGUAAA, the “self-splicing fitness (ln)” value (30 °C) was -3.74 ± 0.21 and the “self-splicing fitness (ln)” value (37 °C) was -2.39 ± 0.23.

In the case of CUAGAGCAAUAUUACGUGUG, the “self-splicing fitness (ln)” value (30 °C) is reported as -0.455 ± 0.055 and the “self-splicing fitness (ln)” value (37 °C) is reported as 0.162 ± 0.08.

With CGCCAGCAAUAUUACGUUCU the “self-splicing fitness (ln)” value (30 °C) was -3.88 ± 0.26 and the “self-splicing fitness (ln)” value (37 °C) was -1.89 ± 0.17.

With UACCAGCAAUAUUACGAGAU the “self-splicing fitness (ln)” value (30 °C) was -3.69 ± 0.21 and the “self-splicing fitness (ln)” value (37 °C) was -3.25 ± 0.13.

For CUUAAGCAAUAUUACGAGGA, the “self-splicing fitness (ln)” value (30 °C) was -2.64 ± 0.34 and the “self-splicing fitness (ln)” value (37 °C) was -3.43 ± 0.46.

In the case of UCUGAGCAAUAUUACGCUCU, the “self-splicing fitness (ln)” value (30 °C) is reported as -2.96 ± 0.46.

For AAGAAGCAAUAUUACGCGGA, the “self-splicing fitness (ln)” value (30 °C) was -2.71 ± 0.16 and the “self-splicing fitness (ln)” value (37 °C) was -0.37 ± 0.12.

For GACCAGCAAUAUUACGAGCC, the “self-splicing fitness (ln)” value (30 °C) was -0.222 ± 0.093 and the “self-splicing fitness (ln)” value (37 °C) was 0.0644 ± 0.14.

In the case of GAAUAGCAAUAUUACGCGGU, the “self-splicing fitness (ln)” value (30 °C) is reported as -2.24 ± 0.15 and the “self-splicing fitness (ln)” value (37 °C) is reported as -2.75 ± 0.27.

In the case of GGCUAGCAAUAUUACGAUAG, the “self-splicing fitness (ln)” value (37 °C) is reported as -2.41 ± 0.39.

For AUGAAGCAAUAUUACGUAAA, the “self-splicing fitness (ln)” value (30 °C) was -1.99 ± 0.09 and the “self-splicing fitness (ln)” value (37 °C) was -1.27 ± 0.11.

For GUGAAGCAAUAUUACGGGCG, the “self-splicing fitness (ln)” value (30 °C) was -0.39 ± 0.052 and the “self-splicing fitness (ln)” value (37 °C) was -0.217 ± 0.065.

With ACGUAGCAAUAUUACGUUUG the “self-splicing fitness (ln)” value (30 °C) was -3.46 ± 0.17 and the “self-splicing fitness (ln)” value (37 °C) was -2.95 ± 0.18.

In the case of UUACAGCAAUAUUACGUGGU, the “self-splicing fitness (ln)” value (30 °C) is reported as -3.33 ± 0.13 and the “self-splicing fitness (ln)” value (37 °C) is reported as -2.36 ± 0.13.

For GAUUAGCAAUAUUACGUUAA, the “self-splicing fitness (ln)” value (30 °C) was -1.94 ± 0.32 and the “self-splicing fitness (ln)” value (37 °C) was -1.98 ± 0.3.

With UCCGAGCAAUAUUACGACGA the “self-splicing fitness (ln)” value (30 °C) was -0.666 ± 0.086 and the “self-splicing fitness (ln)” value (37 °C) was 0.401 ± 0.11.

With CGCCAGCAAUAUUACGGUUG the “self-splicing fitness (ln)” value (30 °C) was -3.7 ± 0.17 and the “self-splicing fitness (ln)” value (37 °C) was -1.78 ± 0.15.

For AAGCAGCAAUAUUACGCAGA, the “self-splicing fitness (ln)” value (30 °C) was -2.16 ± 0.11 and the “self-splicing fitness (ln)” value (37 °C) was -0.306 ± 0.091.

For AAUUAGCAAUAUUACGUUCA, the “self-splicing fitness (ln)” value (30 °C) was -0.618 ± 0.1 and the “self-splicing fitness (ln)” value (37 °C) was -0.409 ± 0.12.

For UCCCAGCAAUAUUACGUUUU, the “self-splicing fitness (ln)” value (30 °C) was -3.06 ± 0.11 and the “self-splicing fitness (ln)” value (37 °C) was -1.81 ± 0.15.

For AUGAAGCAAUAUUACGUGGU, the “self-splicing fitness (ln)” value (30 °C) was -1.71 ± 0.07 and the “self-splicing fitness (ln)” value (37 °C) was -1.31 ± 0.087.

For GCCCAGCAAUAUUACGAUCA, the “self-splicing fitness (ln)” value (30 °C) was -1.65 ± 0.11 and the “self-splicing fitness (ln)” value (37 °C) was -0.633 ± 0.1.

In the case of UCUCAGCAAUAUUACGCCCU, the “self-splicing fitness (ln)” value (30 °C) is reported as -2.5 ± 0.35 and the “self-splicing fitness (ln)” value (37 °C) is reported as -2 ± 0.44.

In the case of GGUUAGCAAUAUUACGAUUC, the “self-splicing fitness (ln)” value (30 °C) is reported as -0.602 ± 0.11 and the “self-splicing fitness (ln)” value (37 °C) is reported as -0.718 ± 0.17.

In the case of GAGUAGCAAUAUUACGGUCA, the “self-splicing fitness (ln)” value (30 °C) is reported as -0.51 ± 0.12 and the “self-splicing fitness (ln)” value (37 °C) is reported as 0.0478 ± 0.12.

For UGCUAGCAAUAUUACGCAGC, the “self-splicing fitness (ln)” value (30 °C) was -4.35 ± 0.36 and the “self-splicing fitness (ln)” value (37 °C) was -2.1 ± 0.28.
